Measured values as given in paper PMC7841161, “APE1 distinguishes DNA substrates in exonucleolytic cleavage by induced space-filling”.

Key:
mAPE1 full-length [1] = molecular target: T1, mAPE1 full-length (mouse, UniProt P28352 1-317); experiment: EMSA; 50 mM EDTA; complex visible at 1 uM mAPE1; EMSA: 50 mM EDTA, 20 mM Tris-HCl pH 7.0, 120 mM NaCl, on ice 10 min + 10 min, FAM-labeled substrates, TBE native gel; settings: protein: recombinant, label: FAM
mAPE1 full-length [2] = molecular target: T1, mAPE1 full-length; experiment: EMSA; 50 mM EDTA; similar to blunt; EMSA: 50 mM EDTA, 20 mM Tris-HCl pH 7.0, 120 mM NaCl, on ice 10 min + 10 min, FAM-labeled substrates, TBE native gel; settings: protein: recombinant, label: FAM
mAPE1 full-length [3] = molecular target: T1, mAPE1 full-length; experiment: EMSA; 50 mM EDTA; weak low-MW complex seen; EMSA: 50 mM EDTA, 20 mM Tris-HCl pH 7.0, 120 mM NaCl, on ice 10 min + 10 min, FAM-labeled substrates, TBE native gel; settings: protein: recombinant; label: FAM; 3 strands, nick between strands 1 and 2
mAPE1 full-length [4] = molecular target: T1, mAPE1 full-length; experiment: EMSA; 50 mM EDTA; extra low-MW complex at 0.5 uM, higher affinity than ends; EMSA: 50 mM EDTA, 20 mM Tris-HCl pH 7.0, 120 mM NaCl, on ice 10 min + 10 min, FAM-labeled substrates, TBE native gel; settings: protein: recombinant; label: FAM; 3 strands, 1-nt gap between strands 1 and 2
mAPE1 full-length [5] = molecular target: T1, mAPE1 full-length; experiment: EMSA; 50 mM EDTA; mostly complexed at 5 uM, stronger than blunt; EMSA: 50 mM EDTA, 20 mM Tris-HCl pH 7.0, 120 mM NaCl, on ice 10 min + 10 min, FAM-labeled substrates, TBE native gel; settings: protein: recombinant; label: FAM; 5' overhang 20 nt on strand 2
[6] = molecular target: mAPE1 in blunt-ended crystal (mouse, UniProt P28352 40-317); experiment: X-ray crystallography; product complex; EMSA: 50 mM EDTA, 20 mM Tris-HCl pH 7.0, 120 mM NaCl, on ice 10 min + 10 min, FAM-labeled substrates, TBE native gel; settings: protein: recombinant; chain copies: 2; 2 copies of one strand, 1-nt 5' overhangs; central A-A from self-pairing
mAPE1 in blunt-ended crystal, sequence (P28352 40-317): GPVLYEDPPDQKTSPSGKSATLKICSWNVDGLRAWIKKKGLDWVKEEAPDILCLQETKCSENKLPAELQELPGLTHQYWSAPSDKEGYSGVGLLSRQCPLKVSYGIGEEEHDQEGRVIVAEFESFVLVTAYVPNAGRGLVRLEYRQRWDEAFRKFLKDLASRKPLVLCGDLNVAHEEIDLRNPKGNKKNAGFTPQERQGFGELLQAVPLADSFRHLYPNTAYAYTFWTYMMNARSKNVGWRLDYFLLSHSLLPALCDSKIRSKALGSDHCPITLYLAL

[7] = molecular target: mAPE1 in recessed crystal (mouse, UniProt P28352 31-317); experiment: as above; settings: protein: recombinant; 2 copies of one strand, 2-nt 5' overhangs; central A-A from self-pairing
mAPE1 in recessed crystal, sequence (P28352 31-317): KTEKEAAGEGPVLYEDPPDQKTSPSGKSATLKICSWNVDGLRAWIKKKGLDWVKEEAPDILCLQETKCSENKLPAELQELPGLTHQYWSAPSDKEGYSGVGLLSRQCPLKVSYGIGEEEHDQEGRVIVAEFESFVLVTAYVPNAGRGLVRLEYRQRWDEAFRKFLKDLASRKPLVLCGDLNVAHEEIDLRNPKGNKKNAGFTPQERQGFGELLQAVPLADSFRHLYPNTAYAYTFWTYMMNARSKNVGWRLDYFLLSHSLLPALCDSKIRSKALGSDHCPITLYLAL

T1 sequence (P28352 whole entry): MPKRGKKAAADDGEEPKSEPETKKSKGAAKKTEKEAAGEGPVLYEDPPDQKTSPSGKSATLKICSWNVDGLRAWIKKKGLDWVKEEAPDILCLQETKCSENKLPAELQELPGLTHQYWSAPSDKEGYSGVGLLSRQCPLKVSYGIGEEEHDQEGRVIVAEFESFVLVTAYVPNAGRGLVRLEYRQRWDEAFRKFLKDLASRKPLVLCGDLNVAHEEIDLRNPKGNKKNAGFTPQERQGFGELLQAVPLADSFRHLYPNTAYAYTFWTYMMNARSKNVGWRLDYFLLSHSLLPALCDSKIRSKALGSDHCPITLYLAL

B1: blunt-ended dsDNA 20 bp (dsDNA)
DNA 1: ACTGGACAAATACTCCGAGG
DNA 2: CCTCGGAGTATTTGTCCAGT
B1: binds (mAPE1 full-length [1]; blunt).

B2: dsDNA 20 mer 2 nt mismatch (dsDNA)
DNA 1: ACTGGACAAATACTCCGAGG
DNA 2: AATCGGAGTATTTGTCCAGT
B2: binds (mAPE1 full-length [2]; 2 nt mismatch at 3' end of strand 1).

B3: recessed dsDNA 5 nt 5' overhang (dsDNA)
DNA 1: ACTGGACAAATACTCCGAGG
DNA 2: ATCACCCTCGGAGTATTTGTCCAGT
B3: binds (mAPE1 full-length [1]; 5' overhang 5 nt on strand 2).

B4: nicked dsDNA 40 mer 5'-OH (dsDNA)
DNA 1: ACTGGACAAATACTCCGAGG
DNA 2: GTGATTAGTGAAGCGTGCTC
DNA 3: GAGCACGCTTCACTAATCACCCTCGGAGTATTTGTCCAGT
modifications: 5'-OH at nick
B4: binds (mAPE1 full-length [3]).

B5: 1-nt gapped dsDNA 40 mer, matched (dsDNA)
DNA 1: ACTGGACAAATACTCCGAGG
DNA 2: TGATTAGTGAAGCGTGCTC
DNA 3: B4 DNA 3
modifications: 5'-OH or 5'-phosphate at gap margin (not stated which for EMSA)
B5: binds (mAPE1 full-length [4]).

B6: recessed dsDNA 20 nt 5' overhang (dsDNA)
DNA 1: ACTGGACAAATACTCCGAGG
DNA 2: B4 DNA 3
B6: binds (mAPE1 full-length [5]).

B7: dsDNA 20 mer 1 nt mismatch (dsDNA)
DNA 1: ACTGGACAAATACTCCGAGG
DNA 2: ACTCGGAGTATTTGTCCAGT
B7: binds (mAPE1 full-length [2]; 1 nt mismatch at 3' end of strand 1).

B8: blunt-ended dsDNA product (crystal) (dsDNA)
DNA 1: CGTAATAC
DNA 2: CGTAATAC
B8: binds [6].

B9: recessed dsDNA product (crystal) (dsDNA)
DNA 1: GCGTAATAC
DNA 2: GCGTAATAC
B9: binds [7].
